Experimental data from the nanobody polyreactivity screen of Harvey et al. (2022).

Test: yeast display, Sf9 membrane polyspecificity reagent, FACS + sequencing; frameworks hold sequencing errors
Procedure, shortened: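 Synthetic nanobody libraries on Saccharomyces cerevisiae BJ5465 were galactose-induced for 36–48 hours, stained 1 hour at 4 °C with 10% biotinylated, detergent-solubilized Sf9 membrane reagent and enriched on streptavidin microbeads. FACS then separated cells into low and high (top ~1%) gates by anti-HA (expression) and streptavidin (reagent binding) fluorescence. Genes were colony-PCR amplified, MiSeq 2 × 250 sequenced and CDR-length filtered. A clone's polyreactivity label is that of its gate of origin.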

| Sequence | polyreactivity (PSR sort gate) |
| --- | --- |
| QVQLVESGGGLVQAGGSLRLSCAASARTFSYYAMGLYRQEPGKERELVAAIRRSSGTTYYADSVKGRFTISSDNAKYSVYLQMNSLKPEDTADYYCNARSRRASIKRDYWGQGTQVSVSS | high polyreactivity |
| QVQLVESGGGLVQAGGSLRLSCAASARTFTRYAIGWYRQAPGKERELVAAISFSVGSTYYADSVKGRFTISRDNAKYSVYLQMNRLKPEDTAVYYCARPSGDAWEGPRMDYWGQCTQVTVSS | low polyreactivity |
| QVQLVESGGGLVQAGGSLRLSCAASASISYYYAMGWYRQETGKERELVAAITRTGTTNYADSVKGRFTISRDNAKNTVYLQMNSLKPEDTAVYYCAKRSTGRLQSYNYRGQGTQVTVSS | low polyreactivity |
| QVQLVESGGGLVQAGGSLRLSCAASASTFGAYAMGWYRQAPGKERELVAAITESGDNTYYADSVKGRFTISRDNAKNTVYLQMNSLKPEDTAVFYCAADDGYSTYEYWGQGTQVTVSS | low polyreactivity |
| QVQLVESGGGLVQAGGSLRLSCAASASTFYTKVMGWYRPAPGKERELVAAISSSGSRTYYADSVKGRFTISRDNAKNTVYLQMNSLKPEDTAVYYCNAYYRLEPDDGDYDYWGQGTQVTVSS | high polyreactivity |
| QVQLVESGGGLVQAGGSLRLSCAASASTVSRYAMGWYRQAPGKEREVVAGISWSGGNTYSADSVKGRFTISRDNAKNTVYLQMNSLKPEDTAVYYCAADFLDYWGVYGWAEYEYWGQGTQVTVSS | low polyreactivity |
| QVQLVESGGGLVQAGGSLRLSCAASAYIYRGYPLGRYRQAPGKERELVAAISNIGGTTYYADSVKGRFTISRDNAKNTVYLQMISLKREDTEVYYCAAEHSYWGWAYGYWGQGTQVTLSS | high polyreactivity |
| QVQLVESGGGLVQAGGSLRLSCAASDLQILCYGWYRQPPGKERELFASITRGDGSTYYADSVKGRFTISRDNAKNTVFIQMNSLKPEDTAVYYCADYNDWRDELYDYWGQGTQVTVSS | low polyreactivity |
| QVQLVESGGGLVQAGGSLRLSCAASGAIFAYNAMGWYRQAPGKEREFVAAISQSGGRTYYADSVKGRFTISRDYEKNTVYLQMNTLKPEDTAVYYCATDGIRLTSHRDYDYWGQGTQVTVSS | low polyreactivity |
| QVQLVESGGGLVQAGGSLRLSCAASGAIFESNAMGWYRQAPGKEREFVAAIDQNDGSSNYADSVKGRFTISRDNAKNTVYLQMNSLKPEDSAVYYCAAEVPGYWYLDYEYWGHGTQVTVSS | low polyreactivity |
| QVQLVESGGGLVQAGGSLRLSCAASGAIFRGYAMGWYRQAPGKERELVATITRRCGSTYYADSVKGRFTISRDNAKNTVYLQMNSLKPEDTAVYYCNARLTFLSSWLGKLQWGYDYWGQGTQVTVSS | low polyreactivity |
| QVQLVESGGGLVQAGGSLRLSCAASGAIFVFYVMGWYRQAPGKERELVAAISNSGSSTYYADSVKGRFTISRDNAKNTVYLQMNSLKPEDTAVYYCAAEYKIPVGFDYWGQGTQVTVSS | low polyreactivity |
| QVQLVESGGGLVQAGGSLRLSCAASGCTFDYNAMGWYRQAPGKEREFVAAIDYSSGSTYYADSVKGRFTISRDNAKNTVYLQMNCLKPEDTAVYYCNAPIAVGSGLFDYWGQGTQVTVSS | high polyreactivity |
| QVQLVESGGGLVQAGGSLRLSCAASGDIFSRYMGWYRQAPGKERELVAAITRGGVSTYYADSVKGRFTISRDNAKNTVYLQMNSLKPEDTAVYYCATGRPVYYVASYDYDYWGQGTQVTVSS | low polyreactivity |
| QVQLVESGGGLVQAGGSLRLSCAASGFIDAYTMGWYRPAPGKERELVAAITWSGGRTSYADSVKGRFTISRDTAKNTVYLQMNSLKPEDTAGYYCAKDVTPYSPDDDYWGQGTQVTVSS | low polyreactivity |
| QVQLVESGGGLVQAGGSLRLSCAASGFIDAYTMGWYRQAPGKERELVAAITWSGGRTYYADSVKGRFTISRDNAKNTVYLQMNSLKPEDTAVYYCAATVSRGFYSWWYDYWGQGTQVTVSS | low polyreactivity |
| QVQLVESGGGLVQAGGSLRLSCAASGFIFADNAMGWYRQAPGKERELVAAINLGGGDTYYADSVKGRFTISRDNAKNTVYLQMNSLKPEDTAVYYCATVWFSEGYDYNHWGQGTQVTVSS | low polyreactivity |
| QVQLVESGGGLVQAGGSLRLSCAASGFIFADNTMGWYRQAPGKERELVGAISRRGGSTYYADSVKGRFTISRDNSKNTVYLQMNSLKPEDTAVYYCAARPFVKHDYWGQGTLVTVSS | high polyreactivity |
| QVQLVESGGGLVQAGGSLRLSCAASGFIFADYAMGWYRQAPGKERELVAAITRGGITYYADSVKGRFTISRDNAKNTVYLQMNSLKPEDTAVYYCAVDPSPRSYYNYYWGQGTQVTVSS | high polyreactivity |
| QVQLVESGGGLVQAGGSLRLSCAASGFIFADYAMGWYRQAPGKERELVAAITRSGGRTYYADSVKGRFTISRDNAKNTVYLQMNSLKPEDTAVYYCAAVGPGRRRDYWGQGTQVTVSS | high polyreactivity |
| QVQLVESGGGLVQAGGSLRLSCAASGFIFADYAMGWYRQAPGKERELVAAITSSGTRTYYADSVKGRFTISRDNAKNTVYLQMNSLKPEDTAVYYCAVRGVYYYHCAFDYWGQGTQVTVSS | high polyreactivity |
| QVQLVESGGGLVQAGGSLRLSCAASGFIFADYTMGWYRQAPGKERELVAAITWSGDSTYYADSVKGRFTISRDNAKNTVYLQMNSLKPEDTAVYYCNAVNDWYYAYYGVTSFRSYDYWGQGTQVTVSS | low polyreactivity |
